Literature values, collected in article PMC4547496.

Experiments:
[1] = target: BAG family nucleotide exchange factor (Homo sapiens) (UniProt Q99933); experiment: FCPIA
Gαo (Homo sapiens) = Gαo (Homo sapiens) (UniProt P09471); experiment: FCPIA
Sequence of UniProt P09471 (P09471 2-354): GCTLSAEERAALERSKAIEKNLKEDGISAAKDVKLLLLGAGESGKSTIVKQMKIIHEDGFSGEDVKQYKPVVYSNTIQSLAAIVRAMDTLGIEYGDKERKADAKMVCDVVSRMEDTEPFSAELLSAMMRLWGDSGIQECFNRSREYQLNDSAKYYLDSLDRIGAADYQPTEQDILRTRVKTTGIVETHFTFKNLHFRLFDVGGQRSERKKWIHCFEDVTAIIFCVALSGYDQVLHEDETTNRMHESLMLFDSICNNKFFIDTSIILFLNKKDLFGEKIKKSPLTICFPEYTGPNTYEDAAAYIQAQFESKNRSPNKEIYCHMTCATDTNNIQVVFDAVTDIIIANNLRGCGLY

Sequence of UniProt Q99933 (Q99933 whole entry): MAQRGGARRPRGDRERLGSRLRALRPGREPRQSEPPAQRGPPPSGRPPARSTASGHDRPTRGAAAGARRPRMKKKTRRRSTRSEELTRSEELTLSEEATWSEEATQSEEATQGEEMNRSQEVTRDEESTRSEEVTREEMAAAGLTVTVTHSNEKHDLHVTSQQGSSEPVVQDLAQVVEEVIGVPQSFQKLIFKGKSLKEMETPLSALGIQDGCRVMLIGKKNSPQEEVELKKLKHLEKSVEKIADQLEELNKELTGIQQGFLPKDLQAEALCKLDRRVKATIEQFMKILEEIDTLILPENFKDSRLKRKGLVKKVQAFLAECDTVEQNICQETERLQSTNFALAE

Row | Substance | Kd [1] | Kd (Gαo (Homo sapiens))
1 | Hsp70 (from UniProt P0DMV8) | 1000 nM | –
2 | RGS4 (from UniProt P49798) | – | 4 nM
